Bridge positions count the residues as written; N and C are the ends. Ends that are not written are not given here. * marks the point of attachment. Biotin = O=C1N[C@H]2[C@H](CS[C@H]2CCCCC(=O)*)N1
T1: purified EpCAM (extracellular domain with myc and His tags at the C terminus, expressed in HEK-293T cells) (UniProt P16422 24-265, limits assumed)
T1 construct: extracellular domain; also called epithelial cell adhesion molecule; CD326
T1 sequence (looked up): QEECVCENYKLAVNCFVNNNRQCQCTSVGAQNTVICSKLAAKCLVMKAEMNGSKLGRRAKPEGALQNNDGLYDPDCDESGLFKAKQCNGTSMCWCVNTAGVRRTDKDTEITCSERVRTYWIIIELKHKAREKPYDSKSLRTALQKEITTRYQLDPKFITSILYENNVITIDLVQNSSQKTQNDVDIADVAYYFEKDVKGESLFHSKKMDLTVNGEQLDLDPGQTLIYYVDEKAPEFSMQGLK

T2: EpCAM, whole protein on cells (HT-29, MCF-7, 293T transfected with full-length EpCAM plasmid pkk196) or on … (UniProt P16422 24-314, limits assumed)
T2 construct: whole, on cells; Used for both cell-surface EpCAM and EpCAM carried on HT-29 exosomes; the assay field says which; also called EpCAM on HT-29; EpCAM-expressing cells
T2 sequence (looked up): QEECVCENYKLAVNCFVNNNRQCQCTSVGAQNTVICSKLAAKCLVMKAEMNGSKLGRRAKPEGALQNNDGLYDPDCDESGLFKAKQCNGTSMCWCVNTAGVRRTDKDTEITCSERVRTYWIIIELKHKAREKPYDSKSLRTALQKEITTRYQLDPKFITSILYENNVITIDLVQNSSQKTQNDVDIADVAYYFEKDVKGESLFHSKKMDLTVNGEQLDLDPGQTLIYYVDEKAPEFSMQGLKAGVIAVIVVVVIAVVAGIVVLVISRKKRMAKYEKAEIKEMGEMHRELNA


What follows are binders tested against T1, purified EpCAM (extracellular domain …) (assay: fluorescence depolarization).
Experimental: (§1) Each FITC-modified EpCAM peptide or control peptide was suspended at a concentration of approximately 100 μM in PBS. After centrifugation, the supernatant was collected and diluted 10-fold, and the absorbance was measured at 495 nm From the measurement value, the molar concentration of the peptide was determined using the formula of Beer-Lambert of the following expression 1: […]
(§2) EpCAM is diluted with PBS into several concentrations from 0 until reaching equilibrium (40 nM for the Ep133 peptide), and the FITC-modified peptide whose precise concentration has been measured by the aforementioned method is added to the dilutions thus prepared. The sample was left at a temperature for measurement for 30 minutes or longer and subjected to polarization measurement using a spectrofluorometer FP-6500 (JASCO Corp.) equipped with an automatic polarization measurement unit (JASCO Corp., APH-103). Kd was estimated by curve fitting according to the Hill equation.

| Binder | fold strength of binding compared with Ep301 |
| --- | --- |
| KHLQCVRNICWS (disulfide 5-10; also: FITC-modified, position not given here, Synthetic peptide, FITC-modified in fluorescence depolarization and cell staining) [Ep114 peptide] | ≥ 10 times |
| EHLHCLGSLCWP (disulfide 5-10; also: FITC-modified, position not given here, Synthetic peptide, FITC-modified in fluorescence depolarization and cell staining) [Ep133 peptide] | ≥ 10 times |

These binders were tested against T1, purified EpCAM (extracellular domain …) (assay: phage ELISA on immobilized EpCAM).
Experimental: The phages displaying the peptides in which each amino acid of Ep114 was substituted by alanine are added to the EpCAM- or anti-Ep114 antibody-immobilized plate, and the plate is left still at room temperature for 1 hour. After washing with TBST, HRP-labeled anti-M13 antibodies were reacted therewith, followed by detection using ABTS (2,2′-azinobis(3-ethylbenzothiazoline-6-sulfonic acid). The binding activity against EpCAM is shown in FIG. 3A, and the binding activity against the anti-Ep114 antibody is shown in FIG. 3B. M13KE is a phage displaying no peptide and is a negative control.
As with the alanine substitution variants, variant phages were prepared by the introducing specific mutations to lysine at the 1st residue based on inverse PCR method and analyzed for binding activity against EpCAM. The analysis method involved evaluation by ELISA in the same way as in the functional analysis of the Ep114 peptide by the alanine scanning. In the figure, EpCAM+ and EpCAM− represent the presence and absence of EpCAM immobilization onto a plate, respectively. Corrected value represents a value subtracting the measurement of EpCAM− from the measurement of EpCAM+.

| Binder | binding result |
| --- | --- |
| WHLQCVRNICWS (not fully specified (bridges); cysteine pairing not given here; also: displayed on phage, also called variant in which lysine was substituted by tryptophan (W); not shown: not described) [Ep114(K1W) variant phage] | binds |
| MHLQCVRNICWS (not fully specified (bridges); cysteine pairing not given here; also: displayed on phage, also called variant in which lysine was substituted by methionine (M); not shown: not described) [Ep114(K1M) variant phage] | binds |
| FHLQCVRNICWS (not fully specified (bridges); cysteine pairing not given here; also: displayed on phage, also called variant in which lysine was substituted by phenylalanine (F); not shown: not described) [Ep114(K1F) variant phage] | binds |
| YHLQCVRNICWS (not fully specified (bridges); cysteine pairing not given here; also: displayed on phage, also called variant in which lysine was substituted by tyrosine (Y); not shown: not described) [Ep114(K1Y) variant phage] | binds |

Each binder was assayed against T1, purified EpCAM (extracellular domain …) (assay: fluorescence depolarization, FITC-modified peptide, Hill fit).
Experimental: as §1, §2

| Binder | Kd |
| --- | --- |
| KHLQCVRNICWS (disulfide 5-10; also: FITC-modified, position not given here, Synthetic peptide, FITC-modified in fluorescence depolarization and cell staining) [Ep114 peptide] | 1.6 nM |
| EHLHCLGSLCWP (disulfide 5-10; also: FITC-modified, position not given here, Synthetic peptide, FITC-modified in fluorescence depolarization and cell staining) [Ep133 peptide] | 1.5 nM |
| KSLQCINNLCWP (disulfide 5-10; also: FITC-modified, position not given here) [Ep301 peptide] | 20 nM |

These binders were tested against T1, purified EpCAM (extracellular domain …) (assay: phage bound to EpCAM, captured on beads, phages counted).
Experimental: The analysis was conducted using the variants in which lysine at the 1st residue was substituted by alanine (A), asparagine (N), serine (S), or isoleucine (I), and M13KE, Ep114, and the variant in which leucine at the 3rd residue was substituted by alanine as controls. Each phage of 1×10¹⁰ PFU was bound to 1 μg of EpCAM, and then mixed with 0.4 mg of beads pretreated overnight with 0.5% BSA and B&W buffer (5 mM Tris-HCl (pH 7.5), 0.5 mM EDTA, and 1 M NaCl). The number of phages bound to the beads was counted.

| Binder | binding result |
| --- | --- |
| KHLQCVRNICWS (cysteine pairing not given here; also: displayed on phage, not shown: fusion and linker not described) [Ep114-displaying phage] | binds |
| NHLQCVRNICWS (not fully specified (bridges); cysteine pairing not given here; also: displayed on phage, also called variant in which lysine at the 1st residue was substituted by asparagine (N); not shown: not described) [Ep114(K1N) variant phage] | binds |
| AHLQCVRNICWS (not fully specified (bridges); cysteine pairing not given here; also: displayed on phage, also called variant in which lysine at the 1st residue was substituted by alanine (A); not shown: not described) [Ep114(K1A) variant phage] | binds |
| SHLQCVRNICWS (not fully specified (bridges); cysteine pairing not given here; also: displayed on phage, also called variant in which lysine at the 1st residue was substituted by serine (S); not shown: not described) [Ep114(K1S) variant phage] | binds |
| KHAQCVRNICWS (not fully specified (bridges); cysteine pairing not given here; also: displayed on phage, not shown: not described) [Ep114(L3A) variant phage] | binds |
| IHLQCVRNICWS (not fully specified (bridges); cysteine pairing not given here; also: displayed on phage, also called variant in which lysine at the 1st residue was substituted by isoleucine (I); not shown: not described) [Ep114(K1I) variant phage] | binds |

These binders were tested against T1, purified EpCAM (extracellular domain …) (assay: fluorescence depolarization, FITC-modified peptide).
Experimental: as §1, §2
The dissociation constants of the EpCAM-binding peptide Ep301 (FIG. 2(D)) disclosed in Patent Literature 2 and Ep301 control (FIG. 2(E)), which was a control peptide derived from Ep301 by the substitution of cysteine at positions 5 and 10 by serine, and a sequence of EpCAM from residue 106 to 119 (FIG. 2(F)) having partial homology to EpCAM-binding peptides were measured similarly.

| Binder | binding result |
| --- | --- |
| KAKQCNGTSMCWPK (cysteine pairing not given here; also: FITC-modified, position not given here) [EpCAM partial sequence (sequence of EpCAM from residue 106 to 119)] | no binding |
| KSLQSINNLSWP (also: FITC-modified, position not given here, Ep301 with cysteine at positions 5 and 10 substituted by serine) [Ep301 control] | no binding |

These binders were tested against T2, EpCAM, whole protein on cells (HT-29, …) (assay: pull-down of HT-29 exosomes on peptide-loaded streptavidin beads, Western blot with anti-EpCAM).
Experimental: 250 μg of streptavidin-magnetic beads (Dynabeads® M-280 streptavidin, VERITAS Corp.) in TBS containing 2% BSA was added to 20 μg of the biotinylated Ep114 peptide and shaken at room temperature for 30 minutes, followed by washing with TBS. Beads reacted without the peptide were used as a control. The anti-Ep114 antibody was added to the beads in TBST and reacted at room temperature for 1 hour. After washing with TBS, the beads were collected. The collected beads were heated at 95° C. for 5 minutes in a SDS sample buffer. After Western-blotting, the anti-Ep114 antibody was detected using HRP-labeled anti-rabbit antibodies.
The binding to exosomes was confirmed using the Western blot system in the similar method as in the preceding paragraph 1. Specifically, 20 μg of the biotinylated Ep114 peptide, the PE183 peptide, the PE184 peptide, or the PE185 peptide was bound to 250 μg of streptavidin-magnetic beads and then reacted with exosomes isolated from HT-29 cells as EpCAM-positive cells, followed by Western blot to detect the exosomes using anti-EpCAM polyclonal antibodies (see the left panel of FIG. 5C).

| Binder | binding result |
| --- | --- |
| Ac-KHLQCVRNICWSNNNNSNNNNK(Biotin)-NH2 (not fully specified (bridges); printed as Ac-KHLQCVRNICWSNNNNSNNNNK(biotin)-NH2; cysteine pairing not given here) [PE185 peptide] | binds |
| Ac-KHLQCVRNICWSGGSGGSK(Biotin)-NH2 (not fully specified (bridges); printed as Ac-KHLQCVRNICWSGGSGGSK(biotin)-NH2; cysteine pairing not given here, Ep114 with the linker GGSGGSK, biotin-modified) [PE184 peptide] | binds |

Reference: patent US20150246945A1 (JAPANESE FOUNDATION FOR CANCER RESEARCH, published 2015)
